Results from patent US20220396632A1 (VERSEAU THERAPEUTICS, published 2022).
Changes are numbered by the printed parent chain. No end group written: not given here. *: point of attachment. Biotin = O=C1N[C@H]2[C@H](CS[C@H]2CCCCC(=O)*)N1

How the values were obtained:
[1] = target: T1, E61A (C-terminal Lys-biotin); assay: alanine-scan ELISA, streptavidin-immobilized biotin peptide
T1 construct: alanine-scan peptide; also called Biotin PSGL-1(42-62) E61A peptide; 61E
T1 peptide: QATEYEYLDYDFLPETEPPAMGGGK

[2] = target: T2, Biotin PSGL-1(42-62) E45A peptide (C-terminal Lys-biotin); assay: as above
T2 peptide: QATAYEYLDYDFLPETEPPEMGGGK

[3] = target: T3, Biotin PSGL-1(42-62) Y51A peptide (C-terminal Lys-biotin); assay: as above
T3 peptide: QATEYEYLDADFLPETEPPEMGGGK

[4] = target: T4, T44A (C-terminal Lys-biotin); assay: as above
T4 construct: alanine-scan peptide; also called Biotin PSGL-1(42-62) T44A peptide; 44T
T4 peptide: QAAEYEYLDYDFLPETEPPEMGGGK

[5] = target: T5, M62A (C-terminal Lys-biotin); assay: as above
T5 construct: alanine-scan peptide; also called Biotin PSGL-1(42-62) M62A peptide; 62M
T5 peptide: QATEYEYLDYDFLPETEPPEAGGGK

[6] = target: T6, Biotin PSGL-1(42-62) Y46A peptide (C-terminal Lys-biotin); assay: as above
T6 peptide: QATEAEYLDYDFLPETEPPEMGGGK

[7] = target: T7, Biotin PSGL-1(42-62) L49A peptide (C-terminal Lys-biotin); assay: ELISA; against wild-type PSGL-1 42-62
T7 peptide: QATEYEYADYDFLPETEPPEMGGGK

[8] = target: T7, Biotin PSGL-1(42-62) L49A peptide; assay: ELISA, streptavidin-bound Ala peptide
[9] = target: T8, Biotin PSGL-1(42-62) L54A peptide (C-terminal Lys-biotin); assay: ELISA, streptavidin-bound Ala peptide
T8 peptide: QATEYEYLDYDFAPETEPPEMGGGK

[10] = target: T9, Biotin PSGL-1(42-62) F53A peptide (C-terminal Lys-biotin); assay: ELISA; against wild-type PSGL-1 42-62
T9 peptide: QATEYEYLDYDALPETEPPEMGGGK

[11] = target: T9, Biotin PSGL-1(42-62) F53A peptide; assay: ELISA, streptavidin-bound Ala peptide
[12] = target: T10, Biotin PSGL-1(56-70) peptide (human); assay: ELISA, plate-bound biotin peptide
T10 peptide: Ac-ETEPPEMLRNSTDTTGK(Biotin)

[13] = target: T11, PSGL-1 endogenously expressed on HL-60 cells (UniProt Q14242 42-412); assay: flow cytometry on HL-60 cells
T11 construct: whole, on cells
T11 sequence (looked up): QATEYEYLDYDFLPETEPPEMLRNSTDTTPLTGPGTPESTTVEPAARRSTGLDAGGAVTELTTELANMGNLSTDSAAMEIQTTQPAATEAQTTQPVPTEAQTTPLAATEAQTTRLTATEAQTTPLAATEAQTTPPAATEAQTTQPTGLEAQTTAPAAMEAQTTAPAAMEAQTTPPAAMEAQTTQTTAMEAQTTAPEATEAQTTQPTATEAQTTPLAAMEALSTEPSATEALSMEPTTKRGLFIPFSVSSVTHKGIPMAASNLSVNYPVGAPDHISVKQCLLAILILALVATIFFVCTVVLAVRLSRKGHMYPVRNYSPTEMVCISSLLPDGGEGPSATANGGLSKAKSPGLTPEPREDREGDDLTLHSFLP
Description: A typical flow cytometry assay was performed by resuspending HL-60 cells in FACS buffer (5% FBS and 0.05% Sodium Azide in PBS, pH 7.2) on ice, pelleting cells by centrifugation at 500×g for 3 min, washing cells with FACS buffer, and then blocking Fc receptors on the cells with Fc block (human TruStain FcX™, BioLegend Cat. #422302) on ice for 10 min. After washing, 50,000 cells/50 ul in FACS buffer was added to each well of a 96-well round bottomed plate (Costar, Cat. #3797), and 50 ul of serially diluted (0.06 nM-1.0 uM) test or isotype control antibody was added into duplicate wells. The plate was covered and incubated on ice for 1 h. After washing, Phycoerythrin (PE) conjugated anti-human IgG secondary antibody (Abcam; Cat. #ab99825) was added to each well and the plate incubated in the dark on ice for 30 min. After washing, the cells were fixed (1% paraformaldhyde).

[14] = target: T3, Biotin PSGL-1(42-62) Y51A peptide; assay: ELISA; against wild-type PSGL-1 42-62
[15] = target: T3, Biotin PSGL-1(42-62) Y51A peptide; assay: ELISA, streptavidin-bound Ala peptide
[16] = target: T12, Biotin PSGL-1(42-62) peptide, unmodified (human, C-terminal Lys-biotin); assay: capture ELISA; against 3 x sY peptide
T12 construct: Residues 42-62 followed by GGGK-biotin; also called WT; wild-type
T12 peptide: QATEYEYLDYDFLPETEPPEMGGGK
How it was run: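 Direct format: anti-PSGL-1 mAb at a single concentration (2–500 nM) or serially diluted (0.002–100 nM) on immobilized target, detected with HRP anti-IgG and TMB at A450; 45 min steps at 37° C. Capture format: coated mAb (3 ug/mL) binds biotinylated unmodified or sulfotyrosine peptide (3 nM–3 uM), detected with HRP-streptavidin.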

B1: 43B6 (antibody, V domains shown)
VH: EVQLQQSGPDLVKPGALVKISCKASGYSFTAYYIHWVKQSHGKSLEWIGRVNPNTGGTSYNPKFKGKAILNVDKSSSTAYMELRSLTSEDSAVYYCARSGSPYYRYDDWGQGTTLTVSS
VL: ENVLTQSPAIMSASPGEKVTMTCRASSTVNSTYLHWFQQKSGASPKLWIYGSSNLASGVPARFSGSGSGTSYSLTISSVEAEDAATYYCQQYSGYPLTFGAGTTLELK
notes: Control anti-PSGL-1 mAb, recombinant; only variable domains given; also called 43B3
binding result [1]: binds | binding result [2]: binds | binding result [3]: binds | binding result [4]: binds | binding result [5]: binds | binding result [6]: binds | EC50Ala/EC50 wt [7]: 12.2 fold | EC50 [8]: 2.63 nM | binding result [9]: no binding

B2: 18F02 (antibody, V domains shown)
VH: QVQLQQPGAELVKPGASVKLSCKASGYTFTSYWMHWVKQRPGQGLEWIGMIHPNSGRTNYNEKFKSKATLTVDKSSSTAYMQLSSLTSEDSAVYYCARSDYWGQGTTLTVSS
VL: DIVMTQAAFSNPVTLGTSASISCRSSKSLLHSDGITYLYWFLQRPGQSPQLLIYRMSNLASGVPDRFSGSGSGTDFTLRISRVEAEDVGVYYCAQMLEFPRTFGGGTKLEIK
notes: From mouse immunisation; only variable domains given
binding result [1]: binds | binding result [2]: binds | binding result [3]: binds | binding result [4]: binds | binding result [5]: binds | binding result [6]: binds | EC50Ala/EC50 wt [10]: 59.2 fold | EC50 [11]: 7.1 nM

B3: 5E12 (antibody, V domains shown)
VH: EIQLQQSGAELVRPGASVKLSCTASGFNIKDDYIHWVKQRPEQGLEWIGRIDPANGNTKSAPKFQDKATITADTSSNTAYLHLSSLTSEDTAVYYCSIRFAYWGQGTLVTVSA
VL: DVVMTQTPLSLSVSLGDQASISCRSSQSLVYRNGDTYLHWFLQKPGQSPKLLIYKVSNRFSGVPDRFSGSGSGTDFTLKISRVEAEDLGIYFCSQNTHVPYTFGGGTKLEIK
notes: Mouse hybridoma mAb; only variable domains given
binding result [12]: binds

B4: 19I01 (antibody, V domains shown)
VH: EVQLVESGGGLVKPGGSRKLSCAASGFTFSDYGMHWVRQAPEKGLEWVAYISSGSSTIYYADTVKGRFTISRDNAKNTLFLQMTSLRSEDTAMYYCARGVDGYWGQGTTLTVSS
VL: DVVMTQTPLSLPVSLGDQASISCRSSQSLVHSNGNTYLHWYLQKPGQSPKFLIYKVSNRFSGVPDRFSGSGSGTDFTLKISRVEAEDLGVYFCSQTTHVPLTFGAGTKLELK
notes: From mouse immunisation; only variable domains given; also called 19101
EC50Ala/EC50 wt [10]: 24.6 fold | EC50 [11]: 2.95 nM

B5: 19L04 (antibody, IgG4, V domains shown)
VH: QIQLVQSGPELKKPGETVKISCKASGYTFTTYGMSWVKQAPGKGLKWMGWINTYSGVPTYADDFKGRFAFSLETSASTAYLQINNLKIEDTATYFCARHYYGSHYFDYWGQGTTLTVSS
VL: DIMMTQSPSSLAMSVGQKVTLRCKSSQSLLNSSNQKNYLAWYQQKPGQSPKLLVYFASTRESGVPVRFIGSGSGTDFTLTISSMQAEDLADYFCQQHYFSPLTFGAGTKLELK
notes: as for B2
EC50 [13]: 2 nM

B6: 16L15 (antibody, V domains shown)
VH: DVKLVESGGGLVKLGGSLKLSCAASGFTFSSYYMSWVRQTPEKRLEWVATISNGGGSTYYPDSVKDRFTISRDNAKNTLYLQMSSLNSEDTAVYYCAKPLYYSNPWFAYWGQGTLVTVSA
VL: DVLLTQTPLSLPVSLGDQASISCRSSQSIVHSNGNTYLEWYLQKPGQSPKLLIYKVSNRFSGVPDRFSGSGSGTDFTLKISRVEAEDLGVYYCFQGSHVPRTFGGGTKLEIK
notes: as for B2
EC50Ala/EC50 wt [7]: 3.6 fold | EC50Ala/EC50 wt [14]: 9.3 fold | EC50 [8]: 3.43 nM | EC50 [15]: 8.83 nM

B7: 9F9 (antibody, V domains shown)
VH: EVQLVETGGGLVQPKGSLKLSCAASGFTFNTNAMNWVRQAPGKGLEWVARIRSKSNNYATYYADSVKDRFTISRDDTQSMIYLQMNNLKTEDTGMYYCVRGGSYWYFDVWGAGTTVTVSS
VL: B6 VL with L4M, H31N, R101W
notes: Control anti-PSGL-1 mAb, recombinant; only variable domains given; also called 9F6
EC50Ala/EC50 wt [14]: 10.8 fold | EC50 [15]: 1.72 nM | EC50 [9]: 2.31 nM

B8: 20I15 (antibody, V domains shown)
VH: EVKLVESGGGLVQPGGSLSLSCAASGFTFTDYYMSWVRQPPGKALEWLGFIRNKANGYTTEYSASVKGRFTISRDNSQSILYLQMNALRAEDSATYYCARTYLRRGYFDVWGTGTTVTVSS
VL: DIVLTQSPASLAVSLGQRATISCRASKSVSTSGYSYMHWFQQKPGQPPKLLIYLASNLESGVPARFSGSGSGTDFTLNIHPVEEEDAATYYCQHSRELPLTFGAGTKLELK
notes: From mouse immunisation; only variable domains given; also called 20115
EC50/EC50 3x(SO3)Y [16]: ~10 fold | EC50 [13]: 1.4 nM

B9: 2E12 (antibody, V domains shown)
VH: QVQLQQSGAELARPGASVKLSCKASGYTFTNYGLNWVKQRTGQGLEWIGEIYPRSGNTYYNEKFKGKATLTADKSSSTAYMQLSSLTSEDSAVYFCATEGAYWGQGTLVTVSA
VL: DIVMTQTPLTLSVTIGQPASISCKSSQSLLHGNGKTYLNWLLQRPGQSPKLLIYLVSKLESGIPDRFSGSGSGTDFTLEISRVEAEDLGIYYCLQSTHFPRTFGGGTKLEIK
notes: as for B3
binding result [12]: binds

B10: 03D07 (antibody, IgG4, V domains shown)
VH: EVKLLESGGGLVQPGGSLRLSCAASGFTFSSYALSWVRQAPGKGLEWVSAISGSGGNTYYADSVKGRFTISRDNSKNTLYLQMNSLRAEDTAVYYCAKVVGATNYWGQGTLVTVSS
VL: DIVMTQTPLSLPVTLGQPASISCRSSQSLVYSDGHTYLSWFHQRPGQSPRRLIYKVSIRDSGVPDRFSGSGSGTDFTLKISRVEAEDVGVYYCMQRLQIPLTFGGGTKVEIK
EC50/EC50 3x(SO3)Y [16]: > 100 fold
